The star is where a group is joined. Biotin = O=C1N[C@H]2[C@H](CS[C@H]2CCCCC(=O)*)N1; Ttds = NCCCOCCOCCOCCCNC(=O)CCC(=O)*
Columns and labels:
[1] = molecular target: bovine serum albumin (BSA) (bovine, UniProt P02769 25-607); experiment: pulldown with biotinylated peptide on streptavidin beads, neutral pH, coomassie
Experimental: (§1) The total incubation volume was 250 μl (50 mM NaPhosphate buffer, 150 mM NaCl, pH7). ‘High Capacity Streptavidin Beads’ (Thermo Fisher Scientific, Waltham, USA) were blocked with 1% BSA solution and equilibrated with the NaPhosphate buffer. For each pulldown 50 μl of beads were utilized and incubated with 200 μl enzyme/peptide mixture for 30 min. at room temperature. The remaining 50 μl of the enzyme/peptide samples were prepared for SDS-PAGE (INPUT fraction). After incubation of the beads with the enzyme/peptide mixture the samples were centrifuged for 1 min. at 1,500×g at 4° C. The supernatant was removed and stored at 4° C. (UNBOUND fraction). Subsequently, the beads were washed three times with NaPhosphate buffer followed by centrifugation at 4,000 rpm at room temperature. […] After destaining the gels were scanned.

[2] = molecular target: T1, recombinant human α-mannosidase (LAMAN) (human, UniProt O00754 50-1011, limits assumed); experiment: as above
T1 sequence (looked up): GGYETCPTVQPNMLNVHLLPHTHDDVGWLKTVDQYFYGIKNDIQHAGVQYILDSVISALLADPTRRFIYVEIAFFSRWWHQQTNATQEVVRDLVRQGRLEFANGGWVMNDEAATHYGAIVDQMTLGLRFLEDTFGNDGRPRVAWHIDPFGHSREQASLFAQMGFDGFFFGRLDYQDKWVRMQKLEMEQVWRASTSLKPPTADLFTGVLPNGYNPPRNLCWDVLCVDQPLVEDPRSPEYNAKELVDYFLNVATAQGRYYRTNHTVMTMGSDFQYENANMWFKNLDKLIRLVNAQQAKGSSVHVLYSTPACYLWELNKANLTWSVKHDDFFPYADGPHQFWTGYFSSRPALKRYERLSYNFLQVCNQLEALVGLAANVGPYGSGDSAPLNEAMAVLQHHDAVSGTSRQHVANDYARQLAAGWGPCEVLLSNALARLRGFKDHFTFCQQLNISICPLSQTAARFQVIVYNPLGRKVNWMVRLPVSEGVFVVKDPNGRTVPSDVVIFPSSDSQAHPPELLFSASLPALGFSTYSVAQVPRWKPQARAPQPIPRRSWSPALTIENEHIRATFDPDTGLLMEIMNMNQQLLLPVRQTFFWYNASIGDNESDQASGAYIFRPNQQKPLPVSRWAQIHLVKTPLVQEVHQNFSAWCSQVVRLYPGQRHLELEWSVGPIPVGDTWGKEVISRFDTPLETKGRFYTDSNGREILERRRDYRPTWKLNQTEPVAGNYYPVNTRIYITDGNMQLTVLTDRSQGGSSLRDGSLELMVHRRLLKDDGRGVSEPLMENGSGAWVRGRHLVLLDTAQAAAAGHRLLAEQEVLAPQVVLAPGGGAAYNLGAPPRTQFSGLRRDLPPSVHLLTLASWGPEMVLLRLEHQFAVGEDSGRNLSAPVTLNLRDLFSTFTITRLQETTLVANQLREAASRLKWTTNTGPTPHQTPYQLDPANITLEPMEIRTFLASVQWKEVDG
Experimental: as §1

Sequence of bovine serum albumin (BSA) (P02769 25-607 limits assumed): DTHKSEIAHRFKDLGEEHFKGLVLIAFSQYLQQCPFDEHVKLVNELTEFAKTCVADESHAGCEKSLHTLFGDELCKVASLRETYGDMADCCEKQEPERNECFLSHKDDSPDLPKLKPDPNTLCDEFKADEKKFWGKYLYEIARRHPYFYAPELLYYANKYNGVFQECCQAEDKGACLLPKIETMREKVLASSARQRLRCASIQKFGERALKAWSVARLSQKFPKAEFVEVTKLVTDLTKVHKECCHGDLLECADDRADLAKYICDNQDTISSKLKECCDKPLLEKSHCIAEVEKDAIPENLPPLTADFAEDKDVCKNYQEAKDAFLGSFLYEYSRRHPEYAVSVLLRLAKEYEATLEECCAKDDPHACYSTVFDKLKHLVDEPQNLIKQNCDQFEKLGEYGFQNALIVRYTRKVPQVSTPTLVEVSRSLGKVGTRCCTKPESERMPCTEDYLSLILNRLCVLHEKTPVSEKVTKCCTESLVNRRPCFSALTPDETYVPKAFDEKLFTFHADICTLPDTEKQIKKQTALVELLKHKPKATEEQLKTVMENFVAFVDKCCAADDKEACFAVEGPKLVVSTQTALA

binding result [1]: no binding | binding result [2]: no binding
B1: Helix 5 peptide (LIMP-2-derived, L152-E175) (peptide)
peptide: {Biotin-Ttds}-LREIIEAMLKAYQQKLFVTHTVDE-OH
notes: Synthetic peptide from jpt Peptide Technologies; also called wild-type helix 5 peptide; LIMP-2-derived helix 5 peptide
